Assay results: patent US20230002480A1

Key:
Experiment in all cases: cell-based or functional assay
[1] = biological target: HIV-1 Env of pseudovirus CAP210.2.00.E8 (HIV-1)
[2] = biological target: HIV-1 Env of pseudovirus 7030102001E5(Rev-) (HIV-1)
[3] = biological target: HIV-1 Env of pseudovirus BJOX010000.06.2 (HIV-1)
[4] = biological target: HIV-1 Env of pseudovirus 246F C1G (HIV-1)
[5] = biological target: HIV-1 Env of pseudovirus 231966.c02 (HIV-1)
[6] = biological target: HIV-1 Env of pseudovirus BF1266.431a (HIV-1)
[7] = biological target: HIV-1 Env of pseudovirus Ce1172_H1 (HIV-1)
[8] = biological target: HIV-1 Env of pseudovirus HIV-16845-2.22 (HIV-1)
[9] = biological target: HIV-1 Env of pseudovirus Ce703010054_2A2 (HIV-1)
[10] = biological target: HIV-1 Env of pseudovirus P1981_C5_3 (HIV-1)
[11] = biological target: HIV-1 Env of pseudovirus CNE52 (HIV-1)
[12] = biological target: HIV-1 Env of pseudovirus 620345.c01 (HIV-1)
[13] = biological target: HIV-1 Env of pseudovirus P0402_c2_11 (HIV-1)
[14] = biological target: HIV-1 Env of pseudovirus CNE19 (HIV-1)
[15] = biological target: HIV-1 Env of pseudovirus ZM135M.PL10a (HIV-1)
[16] = biological target: HIV-1 Env of pseudovirus R1166.c01 (HIV-1)
[17] = biological target: HIV-1 Env of pseudovirus T255-34 (HIV-1)
[18] = biological target: HIV-1 Env of pseudovirus 211-9 (HIV-1)
[19] = biological target: HIV-1 Env of pseudovirus ZM249M.PL1 (HIV-1)
[20] = biological target: HIV-1 Env of pseudovirus CAAN5342.A2 (HIV-1)
[21] = biological target: HIV-1 Env of pseudovirus Ce2010_F5 (HIV-1)
[22] = biological target: HIV-1 Env of pseudovirus THRO4156.18 (HIV-1)
[23] = biological target: HIV-1 Env of pseudovirus WITO4160.33 (HIV-1)
[24] = biological target: HIV-1 Env of pseudovirus MS208.A1 (HIV-1)
[25] = biological target: HIV-1 Env of pseudovirus Q259.d2.17 (HIV-1)
[26] = biological target: HIV-1 Env of pseudovirus 6811.v7.c18 (HIV-1)
[27] = biological target: HIV-1 Env of pseudovirus REJO4541.67 (HIV-1)
[28] = biological target: HIV-1 Env of pseudovirus R3265.c06 (HIV-1)
[29] = biological target: HIV-1 Env of pseudovirus CNE8 (HIV-1)
[30] = biological target: HIV-1 Env of pseudovirus CNE21 (HIV-1)
[31] = biological target: HIV-1 Env of pseudovirus AC10.0.29 (HIV-1)
[32] = biological target: HIV-1 Env of pseudovirus RHPA4259.7 (HIV-1)
[33] = biological target: HIV-1 Env of pseudovirus 1006_11_C3_1601 (HIV-1)
[34] = biological target: HIV-1 Env of pseudovirus 6244_13_B5_4576 (HIV-1)
[35] = biological target: HIV-1 Env of pseudovirus WEAU_d15_410_787 (HIV-1)
[36] = biological target: HIV-1 Env of pseudovirus 6545.v4.c1 (HIV-1)

Question: Which results are given for PGT145 (antibody)?
Answer: IC50 [1]: 37.8 µg/mL; IC80 [1]: > 50 µg/mL; IC50 [2]: > 50 µg/mL; IC80 [2]: > 50 µg/mL; IC50, titer in TZM.bl cells [3]: > 50 µg/mL; IC80, titer in TZM.bl cells [3]: > 50 µg/mL; IC50 [4]: > 50 µg/mL; IC80 [4]: > 50 µg/mL; IC50, titer in TZM.bl cells [5]: < 0.001 µg/mL; IC80, titer in TZM.bl cells [5]: 0.01 µg/mL; IC50 [6]: 1.34 µg/mL; IC80 [6]: 18.5 µg/mL; IC50 [7]: 0.26 µg/mL; IC80 [7]: 2.06 µg/mL; IC50 [8]: > 50 µg/mL; IC80 [8]: > 50 µg/mL; IC50 [9]: > 50 µg/mL; IC80 [9]: > 50 µg/mL; IC50, titer in TZM.bl cells [10]: 5.41 µg/mL; IC80, titer in TZM.bl cells [10]: > 50 µg/mL; IC50 [11]: 0.02 µg/mL; IC80 [11]: 0.091 µg/mL; IC50, titer in TZM.bl cells [12]: 0.241 µg/mL; IC80, titer in TZM.bl cells [12]: 19.7 µg/mL; IC50, titer in TZM.bl cells [13]: 0.009 µg/mL; IC80, titer in TZM.bl cells [13]: 0.038 µg/mL; IC50 [14]: 0.103 µg/mL; IC80 [14]: 1.13 µg/mL; IC50 [15]: > 50 µg/mL; IC80 [15]: > 50 µg/mL; IC50, titer in TZM.bl cells [16]: 2.27 µg/mL; IC80, titer in TZM.bl cells [16]: 17.9 µg/mL; IC50, titer in TZM.bl cells [17]: > 50 µg/mL; IC80, titer in TZM.bl cells [17]: > 50 µg/mL; IC50, titer in TZM.bl cells [18]: 0.129 µg/mL; IC80, titer in TZM.bl cells [18]: 0.923 µg/mL; IC50 [19]: 1.44 µg/mL; IC80 [19]: > 50 µg/mL; IC50 [20]: 6.67 µg/mL; IC80 [20]: 25.5 µg/mL; IC50 [21]: > 50 µg/mL; IC80 [21]: > 50 µg/mL; IC50 [22]: 0.01 µg/mL; IC80 [22]: 0.029 µg/mL; IC50 [23]: < 0.001 µg/mL; IC80 [23]: 0.001 µg/mL; IC50 [24]: 0.334 µg/mL; IC80 [24]: 18 µg/mL; IC50 [25]: 44.2 µg/mL; IC80 [25]: > 50 µg/mL; IC50, titer in TZM.bl cells [26]: > 50 µg/mL; IC80, titer in TZM.bl cells [26]: > 50 µg/mL; IC50 [27]: < 0.001 µg/mL; IC80 [27]: 0.001 µg/mL; IC50, titer in TZM.bl cells [28]: 0.037 µg/mL; IC80, titer in TZM.bl cells [28]: 0.227 µg/mL; IC50, titer in TZM.bl cells [29]: 0.272 µg/mL; IC80, titer in TZM.bl cells [29]: 2.24 µg/mL; IC50 [30]: < 0.001 µg/mL; IC80 [30]: 0.009 µg/mL; IC50 [31]: 0.01 µg/mL; IC80 [31]: 0.025 µg/mL; IC50 [32]: 0.029 µg/mL; IC80 [32]: 0.095 µg/mL; IC50 [33]: > 50 µg/mL; IC80 [33]: > 50 µg/mL; IC50 [34]: 7.27 µg/mL; IC80 [34]: 44.5 µg/mL; IC50 [35]: 1.95 µg/mL; IC80 [35]: 31.5 µg/mL; IC50, titer in TZM.bl cells [36]: 0.114 µg/mL; IC80, titer in TZM.bl cells [36]: 3.1 µg/mL

Question: With PGT128 (antibody) as the substance, how does the IC50 [1] read?
Answer: > 50 µg/mL

Question: What about the IC80 [1] of the same substance?
Answer: > 50 µg/mL

Question: What about the IC50 [2] of the same substance?
Answer: 0.007 µg/mL

Question: What about the IC80 [2] of the same substance?
Answer: 0.022 µg/mL

Question: And the IC50, titer in TZM.bl cells [3]?
Answer: 4.82 µg/mL

Question: And the IC80, titer in TZM.bl cells [3]?
Answer: > 50 µg/mL

Question: And the IC50 [4]?
Answer: 0.005 µg/mL

Question: And the IC80 [4]?
Answer: 0.014 µg/mL

Question: And the IC50, titer in TZM.bl cells [5]?
Answer: 3.2 µg/mL

Question: And the IC80, titer in TZM.bl cells [5]?
Answer: > 50 µg/mL

Question: And the IC50 [6]?
Answer: > 50 µg/mL

Question: What about the IC80 [6] of the same substance?
Answer: > 50 µg/mL

Question: And the IC50 [7]?
Answer: 0.013 µg/mL

Question: What about the IC80 [7] of the same substance?
Answer: 0.038 µg/mL

Question: What about the IC50 [8] of the same substance?
Answer: 0.181 µg/mL

Question: And the IC80 [8]?
Answer: 0.834 µg/mL

Question: What about the IC50 [9] of the same substance?
Answer: > 50 µg/mL

Question: And the IC80 [9]?
Answer: > 50 µg/mL

Question: What about the IC50, titer in TZM.bl cells [10] of the same substance?
Answer: 0.019 µg/mL

Question: What about the IC80, titer in TZM.bl cells [10] of the same substance?
Answer: 0.088 µg/mL

Question: What about the IC50 [11] of the same substance?
Answer: > 50 µg/mL

Question: What about the IC80 [11] of the same substance?
Answer: > 50 µg/mL

Question: What about the IC50, titer in TZM.bl cells [12] of the same substance?
Answer: > 50 µg/mL

Question: And the IC80, titer in TZM.bl cells [12]?
Answer: > 50 µg/mL

Question: And the IC50, titer in TZM.bl cells [13]?
Answer: 0.007 µg/mL

Question: And the IC80, titer in TZM.bl cells [13]?
Answer: 0.02 µg/mL

Question: And the IC50 [14]?
Answer: > 50 µg/mL

Question: And the IC80 [14]?
Answer: > 50 µg/mL

Question: What about the IC50 [15] of the same substance?
Answer: > 50 µg/mL

Question: And the IC80 [15]?
Answer: > 50 µg/mL

Question: What about the IC50, titer in TZM.bl cells [16] of the same substance?
Answer: > 50 µg/mL

Question: What about the IC80, titer in TZM.bl cells [16] of the same substance?
Answer: > 50 µg/mL

Question: What about the IC50, titer in TZM.bl cells [17] of the same substance?
Answer: > 50 µg/mL

Question: And the IC80, titer in TZM.bl cells [17]?
Answer: > 50 µg/mL

Question: And the IC50, titer in TZM.bl cells [18]?
Answer: 0.062 µg/mL

Question: And the IC80, titer in TZM.bl cells [18]?
Answer: 0.215 µg/mL

Question: What about the IC50 [19] of the same substance?
Answer: 39.7 µg/mL

Question: And the IC80 [19]?
Answer: > 50 µg/mL

Question: What about the IC50 [20] of the same substance?
Answer: 0.514 µg/mL

Question: What about the IC80 [20] of the same substance?
Answer: > 50 µg/mL

Question: And the IC50 [21]?
Answer: > 50 µg/mL

Question: And the IC80 [21]?
Answer: > 50 µg/mL

Question: What about the IC50 [22] of the same substance?
Answer: > 50 µg/mL

Question: And the IC80 [22]?
Answer: > 50 µg/mL

Question: What about the IC50 [23] of the same substance?
Answer: > 50 µg/mL

Question: What about the IC80 [23] of the same substance?
Answer: > 50 µg/mL

Question: What about the IC50 [24] of the same substance?
Answer: > 50 µg/mL

Question: And the IC80 [24]?
Answer: > 50 µg/mL

Question: And the IC50 [25]?
Answer: > 50 µg/mL

Question: What about the IC80 [25] of the same substance?
Answer: > 50 µg/mL

Question: And the IC50, titer in TZM.bl cells [26]?
Answer: 0.003 µg/mL

Question: And the IC80, titer in TZM.bl cells [26]?
Answer: 0.05 µg/mL

Question: What about the IC50 [27] of the same substance?
Answer: > 50 µg/mL

Question: And the IC80 [27]?
Answer: > 50 µg/mL

Question: What about the IC50, titer in TZM.bl cells [28] of the same substance?
Answer: > 50 µg/mL

Question: And the IC80, titer in TZM.bl cells [28]?
Answer: > 50 µg/mL

Question: What about the IC50, titer in TZM.bl cells [29] of the same substance?
Answer: 0.019 µg/mL

Question: And the IC80, titer in TZM.bl cells [29]?
Answer: 0.052 µg/mL

Question: And the IC50 [30]?
Answer: 0.01 µg/mL

Question: And the IC80 [30]?
Answer: 0.026 µg/mL

Question: What about the IC50 [31] of the same substance?
Answer: 0.008 µg/mL

Question: And the IC80 [31]?
Answer: 0.018 µg/mL

Question: And the IC50 [32]?
Answer: 0.026 µg/mL

Question: What about the IC80 [32] of the same substance?
Answer: 0.109 µg/mL

Question: And the IC50 [33]?
Answer: 0.011 µg/mL

Question: And the IC80 [33]?
Answer: 0.04 µg/mL

Question: And the IC50 [34]?
Answer: 0.02 µg/mL

Question: What about the IC80 [34] of the same substance?
Answer: 0.076 µg/mL

Question: What about the IC50 [35] of the same substance?
Answer: 0.032 µg/mL

Question: And the IC80 [35]?
Answer: 0.153 µg/mL

Question: What about the IC50, titer in TZM.bl cells [36] of the same substance?
Answer: > 50 µg/mL

Question: What about the IC80, titer in TZM.bl cells [36] of the same substance?
Answer: > 50 µg/mL
